Reference: publication PMC2853120

Columns and labels:
[1] = molecular target: T1, tyrosyl-DNA phosphodiesterase 1 (Tdp1) (Homo sapiens, UniProt Q9NUW8 1-608); assay: fluorescence anisotropy
[2] = molecular target: T1, tyrosyl-DNA phosphodiesterase 1 (Tdp1); assay: SPR
[3] = molecular target: T1, tyrosyl-DNA phosphodiesterase 1 (Tdp1); assay: fluorescence anisotropy; remark: listed apart in the source
[4] = molecular target: T1, tyrosyl-DNA phosphodiesterase 1 (Tdp1); assay: SPR; remark: listed apart in the source
[5] = molecular target: T1, tyrosyl-DNA phosphodiesterase 1 (Tdp1); assay: competition

T1 sequence (Q9NUW8 whole entry): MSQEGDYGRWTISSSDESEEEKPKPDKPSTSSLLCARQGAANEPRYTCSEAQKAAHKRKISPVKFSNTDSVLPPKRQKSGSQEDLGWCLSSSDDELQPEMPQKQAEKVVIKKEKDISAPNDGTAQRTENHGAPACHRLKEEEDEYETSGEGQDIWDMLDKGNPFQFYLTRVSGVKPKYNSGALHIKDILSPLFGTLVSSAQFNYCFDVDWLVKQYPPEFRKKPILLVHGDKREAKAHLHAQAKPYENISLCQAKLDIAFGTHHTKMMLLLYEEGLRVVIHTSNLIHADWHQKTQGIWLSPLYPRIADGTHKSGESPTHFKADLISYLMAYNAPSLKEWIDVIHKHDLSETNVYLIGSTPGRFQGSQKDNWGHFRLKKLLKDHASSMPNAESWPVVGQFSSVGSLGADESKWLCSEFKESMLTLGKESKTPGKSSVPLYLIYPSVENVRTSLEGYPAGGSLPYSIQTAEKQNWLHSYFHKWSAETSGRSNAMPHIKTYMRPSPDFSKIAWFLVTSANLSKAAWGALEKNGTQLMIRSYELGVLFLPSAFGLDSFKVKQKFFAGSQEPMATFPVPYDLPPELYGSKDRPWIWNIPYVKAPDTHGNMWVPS

Binder | Kd [1] | other results
GATCTAAAAGACTT (ssDNA, 5'-6-FAM via phosphodiester; 3'-phosphate) [F14p] | 34.1 nM | –
GATCTAAAAGACTT (ssDNA, 5'-biotin; 3'-phosphate) [B14p] | – | Kd [2]: 57 nM
GATCTAAAAGACTT (ssDNA, 5'-6-FAM via phosphodiester; 3'-OH) [F14] | – | Kd [3]: 76.9 nM
GATCTAAAAGACTT (ssDNA, 5'-phosphate; 3'-biotin) [p14B] | – | binding result [4]: no binding
GATCTAAAAGACTTG (ssDNA, 5'-6-FAM via phosphodiester; 3'-OH) [F15] | 39.2 nM | –
AAGATCTAAAAGACTTAAGGATCTAAAAGACTTGAAGATCTAAAAGACTT (ssDNA, 3'-phosphate) [50p] | – | binding signal [5]: ~10 fold higher affinity than 14p
GATCTAAAAGACTTG (ssDNA, 3'-6-FAM via phosphorothioate (non-hydrolyzable)) [15(pS)F] | 2.4 nM | –
GATCTAAAAGACTTG (ssDNA, 5'-6-FAM via phosphorothioate; 3'-OH) [F(pS)15] | 26.3 nM | –
